The source of these data is patent US20170212130A1 (ROCKEFELLER UNIVERSITY, published 2017).

One may read the Kd as the equilibrium constant for the complex coming apart.

For assay [1], the target named is T1, DsRed (Discosoma sp., UniProt Q9U6Y8 1-225).
T1 construct: Recombinant fluorescent protein; construct not described; also called standard DsRed; DsRed from Discosoma (Ds)
The assay is described as follows: bead binding: nanobody-Dynabeads + fluorescent protein, eluate on SDS-PAGE.

Assay [2] has as its target T2, GFP-His6 (eGFP) (Aequorea victoria, UniProt P42212 2-238 = GFP).
T2 construct: SPR and bead assays speak only of recombinant GFP or eGFP; also called recombinant GFP; A. victoria (Av) GFP
The assay is described as follows: method not named in the sentence (in vitro Kd by SPR per FIG. 3 legend).

Assay [3] concerns the target T2, GFP-His6 (eGFP). As to the kind of experiment: label under gel lane; legend: in vitro Kd for GFP by SPR. (Surface plasmon resonance follows binding to a sensor surface in real time, without labels.)
For assay [4], the target named is T2, GFP-His6 (eGFP). Described as above. The source holds these as a separate data set.
Assay [5] concerns the target T2, GFP-His6 (eGFP). The assay is described as follows: SPR, GFP immobilized.
The target in assay [6] is T2, GFP-His6 (eGFP). The assay is described as follows: SPR, GFP immobilized, Langmuir fit; no unit printed [continued].
The target of assay [7] is T3, GFPuv (Aequorea victoria, UniProt P42212 1-229 = GFP, limits assumed).
T3 construct: 15N-labeled for NMR; also called GFPuv variant; 15N-labeled GFPuv
The assay is described as follows: NMR, 15N-1H HSQC of 15N-GFPuv with 1-1.2 molar excess of LaG.

In assay [8] the target is T2, GFP-His6 (eGFP). As to the kind of experiment: SPR, GFP immobilized, Langmuir fit; unit inferred.
Assay [9] has as its target T4, mCherry (Discosoma).
T4 construct: Immunogen is mCherry-His6; SPR says recombinant mCherry; also called recombinant mCherry-His6; Discosoma mCherry
The assay is described as follows: label under gel lane; legend: in vitro Kd for mCherry by SPR.

Assay [10] has as its target T4, mCherry. The assay is described as follows: SPR, mCherry immobilized.
The target of assay [11] is T4, mCherry. As to the kind of experiment: SPR, mCherry immobilized, Langmuir fit; unit inferred.
Assay [12] addresses T1, DsRed. The assay is described as follows: bead binding: nanobody-Dynabeads + fluorescent protein, eluate on SDS-PAGE. This is another data set of the same source.
Assay [13] concerns the target T2, GFP-His6 (eGFP). The assay is described as above.
For assay [14], the target named is T2, GFP-His6 (eGFP). As to the kind of experiment: SPR, GFP immobilized, Langmuir fit; no unit printed [continued]. This is another data set of the same source.
The target in assay [15] is T2, GFP-His6 (eGFP). As to the kind of experiment: equilibrium bead binding: LaG-Dynabeads + 0.8-400 nM GFP, Coomassie band density fit.
The target in assay [16] is T2, GFP-His6 (eGFP). The assay is described as follows: bead binding assay (footnote 1).
Assay [17] concerns the target T5, GFP-His6 (eGFP) (Aequorea victoria, UniProt P42212 2-238 = GFP). The assay is described as follows: SPR, GFP immobilized.
Assay [18] has as its target T5, GFP-His6 (eGFP). The assay is described as follows: SPR, GFP immobilized; reference LaG-16 or LaG-2 alone.

Like-named read-outs stand apart in the source and are kept apart here.

T1 sequence (Q9U6Y8 whole entry): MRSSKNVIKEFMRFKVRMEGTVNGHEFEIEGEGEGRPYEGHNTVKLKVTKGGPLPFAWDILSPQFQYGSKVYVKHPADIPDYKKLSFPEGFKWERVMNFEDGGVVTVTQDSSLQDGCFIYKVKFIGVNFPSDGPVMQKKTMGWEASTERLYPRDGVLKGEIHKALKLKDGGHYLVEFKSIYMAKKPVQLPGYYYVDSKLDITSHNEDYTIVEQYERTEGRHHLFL

B1: LaG-41 (VHH)
VHH: DVQLVESGGGLVQAGGSLRLSCAASGPTGAMAWFRQAPGKEREFVGGISGSETDTYYVDSVKGRFTVDRDNVKNTVYLQMNSLKPEDTAVYYCAARRRITLFTSRTDYDFWGRGTQVTV
For the molecule B1, in [1], the binding result is listed as “no binding”. In [2], this molecule showed a Kd of 0.9 nM.

B2: LaG-24 (VHH)
VHH: DVQLVESGGGLVQPGGSLRLSCAASGEIASIIAIGWYRQAPGKQRESVALITRSGMITYGDSAQGRFTISRDDAKNTVYLHMDDLVPEDTAVYYCNAKKVSFGDYWGQGTQVTVS
For the molecule B2, the Kd came out at 35 nM in assay [3], 35 nM in assay [4], 41 nM in [5] and 41 nM in assay [6]. Further, the binding result in assay [7] and in [1] was “no binding” throughout.

B3: LaG-9 (VHH)
VHH: DVQLVESGGGLVQAGGSLRLSCAASGRTFSTSAMGWFRQAPGKEREFVARITWSAGYTAYSDSVKGRFTISRDKAKNTVYLQMNSLKPEDTAVYYCASRSAGYSSSLTRREDYAYWGQGTQVTVS
For the molecule B3, the Kd in assay [8], in assay [3], in [4] and in [5] was 3.5 nM in each case. Moreover, the binding result in assay [1] was “no binding”.

B4: LaM-6 (VHH)
VHH: QVQLVESGGGLVQAGGSLRLSCVASGSAPSFFAMAWYRQSPGNERELVAALSSLGSTNYADSVKGRFTISMDNAKNTVYLQMNNVNAEDTAVYYCAAGDFHSCYARKSCDYWGQGTQVTVS
For the molecule B4, the Kd in assay [9], in [10] and in assay [11] was 0.26 nM throughout. The binding result in [12] and in assay [13] was “no binding” throughout.

B5: LaG-43 (VHH)
VHH: DVQLVESGGGLVQPGGSLRLSCEASGGAFSTVAMGWFRQAPGKEREFVGAITWTAGSTYYADSAKGRFTISRDNAKNTVHLQMNSLKPEDTAVYYCAQRVRGFFGPLRTTPSWYEYWGQGTQVTVS
Take B5: the Kd came out at 13 nM in [3], 11 nM in assay [5] and 11 nM in [14].

B6: LaG41-LaG2 (G4S) (bispecific antibody)
single-chain fusion of two VHH: MADVQLVESGGGLVQAGGSLRLSCAASGPTGAMAWFRQAPGKEREFVGGISGSETDTYYVDSVKGRFTVDRDNVKNTVYLQMNSLKPEDTAVYYCAARRRITLFTSRTDYDFWGRGTQVTVGGGGSGGGGSGGGGSMAQVQLVESGGGLVQAGGSLRLSCAASGRTFSNYAMGWFRQAPGKEREFVAAISWTGVSTYYADSVKGRFTISRDNDKNTVYVQMNSLIPEDTAIYYCAAVRARSFSDTYSRVNEYDYWGQGTQVTV
notes: Member of the group m24; also called LaG41-LaG2 G4S Dimer
On to B6, for which the Kd in [5] and in [14] was 0.15 nM in each case.

B7: LaM-8 (VHH)
VHH: QVQLVESGGGLVQAGGSLRLSCAVSGRPFSEYNLGWFRQAPGKEREFVARIRSSGTTVYTDSVKGRFSASRDNAKNMGYLQLNSLEPEDTAVYYCAMSRVDTDSPAFYDYWGQGTQVTVST
Regarding B7, the Kd in [9], in assay [10] and in assay [11] was 63 nM each time. Further, the binding result in assay [12] and in [13] was “no binding” each time.

B8: LaG-2 (VHH)
VHH: QVQLVESGGGLVQAGGSLRLSCAASGRTFSNYAMGWFRQAPGKEREFVAAISWTGVSTYYADSVKGRFTISRDNDKNTVYVQMNSLIPEDTAIYYCAAVRARSFSDTYSRVNEYDYWGQGTQVTV
notes: that range is inconsistent in itself; not shown: PreScission Protease cleavage site and C-terminal 6xHis tag
B8: the Kd is 19 nM in [15], 16 nM in assay [5] and 19 nM in assay [16]. Further, the binding result in assay [1] was “no binding”.

B9: LaG16-LaG2 fusion with a flexible glycine-rich linker (G4S) (other)
chain: MAQVQLVESGGRLVQAGDSLRLSCAASGRTFSTSAMAWFRQAPGREREFVAAITWTVGNTILGDSVKGRFTISRDRAKNTVDLQMDNLEPEDTAVYYCSARSRGYVLSVLRSVDSYDYWGQGTQVTVSGGGGSMAQVQLVESGGGLVQAGGSLRLSCAASGRTFSNYAMGWFRQAPGKEREFVAAISWTGVSTYYADSVKGRFTISRDNDKNTVYVQMNSLIPEDTAIYYCAAVRARSFSDTYSRVNEYDYWGQGTQVTV
B9: the affinity in assay [17], expressed as Kd, was 0.036 nM. For the same molecule, in [18], the “fold lower Kd than either LaG alone” value is roughly 20 fold.

B10: LaM-1 (VHH)
VHH: QVQLVESGGGLVQAGDSLRLSCAASGRTFENYAMGWFRQAPGKEREFVGAVSWGGGRTYYADNVKGRFTISRDNAKKNTVYLQMNSLKPEDTAVYYCAAKSVLTIATMRVPDEYNYWGQGTQVTVS
Turning to B10, the Kd in [9], in assay [10] and in assay [11] was 22 nM each time. The binding result in assay [12] and in assay [13] was “no binding” in each case.
